The record followed here is patent US20260242478A1 (published 2026).

Where no end group is shown, it is not given here.

B1: Phage-3503 (peptide)
peptide: EAPACVPVWMCNGF
modifications: cysteine pairing not given here; also: fused to pIII of bacteriophage, pIII and linker not given here
notes: Peptide-180 library clone, tested as clonal phage supernatant with the peptide fused to pIII of the bacteriophage
B2: Phage-3545 (peptide)
peptide: VVKACIPEWMCSGF
notes: Tested as crude clonal phage supernatant
B3: Phage-3535 (peptide)
peptide: LNAMCVPAWMCTGF
notes: as for B2
B4: Phage-3540 (peptide)
peptide: VKPMCVPEWMCSGL
notes: as for B2
B5: Phage-3537 (peptide)
peptide: FEVACIPQWMCDGF
notes: as for B2
B6: Phage-3546 (peptide)
peptide: DARACVPEWMCYGF
notes: as for B2
B7: Phage-3541 (peptide)
peptide: ENLICKPAWMCVGF
notes: as for B2
B8: Phage-3539 (peptide)
peptide: DVRMCVPEWMCSGF
notes: as for B2
B9: Phage-3543 (peptide)
peptide: VTPQCVPMWMCTGF
notes: as for B2
B10: Phage-3536 (peptide)
peptide: LEMACRPMWMCQGL
notes: as for B2
B11: Phage-3542 (peptide)
peptide: LYVKCSPEWMCIGF
notes: as for B2
B12: Phage-3538 (peptide)
peptide: IARTCVPAWMCSGF
notes: as for B2
B13: Phage-3533 (peptide)
peptide: VERVCVPQWMCSGF
notes: as for B2
B14: Phage-3544 (peptide)
peptide: FLQACKPPWMCTGF
notes: as for B2
B15: Phage-3534 (peptide)
peptide: ESVYCIPQWMCSGL
notes: as for B2

One experiment deals with T1, Anti-PSMA Fab.
T1 construct: Biotinylated and captured on neutravidin coated plates in the phage ELISA; also called 006 PSMA Fab
Briefly: clonal phage ELISA on biotinylated PSMA Fab captured on neutravidin plate, anti-M13 HRP detection, blocking buffer alone. For orientation: In an ELISA, binding on a coated surface is turned into a signal by an enzyme label.
Experimental: (§1) Clonal phage were harvested as crude supernatants and screened via standard ELISAs. […] Prior to the addition of clonal phage. wells were incubated with blocking buffer and PSMA antigen or blocking buffer alone. Without washing or aspirating, clonal phage supernatants were then added to the wells and incubated for a short time. Wells were then washed followed by detection of bound phage using a horse radish conjugated anti-M13 antibody.
Consider B1, for which the “Phage binding ELISA signal, Anti-PSMA Fab” value was found to be 1.7.

The target of the next experiment is T2, PSMA Fab (biotinylated (site not stated)).
T2 construct: also called Anti-PSMA Fab; 006 PSMA Fab
The experiment in a line: clonal phage ELISA on captured PSMA Fab; competitor: PSMA antigen at saturating concentration.
VDHRCVPSWMCYGL [Phage-3508]: the “phage binding ELISA signal” value is 0.0745.
Take SVTTCIPPWMCTGF [Phage-3513]: the “phage binding ELISA signal” value came out at 0.0979.
With PELACIPEWMCIGF [Phage-3515], the “phage binding ELISA signal” value is 0.0803.
For TEQICKPAWMCTGL [Phage-3512], the “phage binding ELISA signal” value was 0.0536.
In the case of SVAYCVPTWMCDGL [Phage-3516], the “phage binding ELISA signal” value amounted to 0.0618.
On the same count and under the same terms, then IEIRCKPEWMCTSF [Phage-3505], with 0.0708; and MVPRCEPEWMCVGF [Phage-3517], with 0.0705.
Regarding LTQMCKPLWMCAGF [Phage-3506], the “phage binding ELISA signal” value was 0.0786.
On to EYMRCEPSWMCYGF [Phage-3509], for which the “phage binding ELISA signal” value came to 0.0584.
Consider ADIYCKPVWMCTGF [Phage-3510], for which the “phage binding ELISA signal” value was found to be 0.0909.
The same measure, in the same setting: then NIIHCVPPWMCDGF [Phage-3504], with 0.0795; and VVKHCVPTWMCAGF [Phage-3514], with 0.0813; and VGHMCKPVWMCAGL [Phage-3511], with 0.101.
With AEPVCVPDWMCFGF [Phage-3507], the “phage binding ELISA signal” value was 0.103.

A further experiment has as its target T3, PSMA Fab (SEQ ID NOs: 19, 20).
T3 construct: also called Anti-PSMA Fab; 006 PSMA Fab
The experiment in a line: clonal phage ELISA on captured PSMA Fab, wells pre-incubated with PSMA antigen as competitor.
Experimental: as §1
As to B2, the “Phage binding ELISA signal, Anti-PSMA Fab with PSMA antigen” value stood at 0.125.
Regarding B3, the “Phage binding ELISA signal, Anti-PSMA Fab with PSMA antigen” value worked out at 0.0634.
For the molecule B4, the “Phage binding ELISA signal, Anti-PSMA Fab with PSMA antigen” value was 0.0907.
On the same count and under the same terms, then B5, with 0.118.
Take B6: the “Phage binding ELISA signal, Anti-PSMA Fab with PSMA antigen” value is 0.0805.
In the case of B7, the “Phage binding ELISA signal, Anti-PSMA Fab with PSMA antigen” value was 0.0738.
Still for that read-out and setting: in the case of B8 it was 0.0753; in that of B9, 0.105; in that of B10, 0.0725.
Take B11: the “Phage binding ELISA signal, Anti-PSMA Fab with PSMA antigen” value turned out to be 0.0709.
B12: the “Phage binding ELISA signal, Anti-PSMA Fab with PSMA antigen” value turned out to be 0.102.
Consider B13, for which the “Phage binding ELISA signal, Anti-PSMA Fab with PSMA antigen” value stood at 0.1.
Same read-out and setting: in the case of B14 it was 0.146.
Turning to B15, the “Phage binding ELISA signal, Anti-PSMA Fab with PSMA antigen” value is 0.0698.

In a further experiment the target is T4, Anti-PSMA Fab (biotinylated (site not stated)).
T4 construct: also called 006 PSMA Fab
Briefly: clonal phage ELISA on captured PSMA Fab, wells pre-incubated with PSMA antigen as competitor, anti-M13 HRP detection.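 Further: crude clonal phage supernatants added, with no intervening wash, to wells preincubated with PSMA antigen in blocking buffer, incubated briefly, then washed before detecting bound phage.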
Regarding VVPLCVPMWMCSPM (Clonal phage of the Peptide-180 library) [Phage-3557], the “Phage binding ELISA signal, Anti-PSMA Fab with PSMA antigen” value came out at 0.0867.
On the same count and under the same terms, then VEPACVPLWMCFGL (Clonal phage of the Peptide-180 library) [Phage-3558], with 0.0619; and TYFRCEPSWMCTGL (Clonal phage of the Peptide-180 library) [Phage-3559], with 0.073.
Same read-out and setting: in the case of IEKVCVPAWMCMGF (Clonal phage of the Peptide-180 library) [Phage-3551] it was 0.238; in that of TPPFCIPKWMCQGF (Clonal phage of the Peptide-180 library) [Phage-3548], 0.117.
Regarding MNIMCRPVWMCTGL (Clonal phage of the Peptide-180 library) [Phage-3549], the “Phage binding ELISA signal, Anti-PSMA Fab with PSMA antigen” value came out at 0.0993.
Take MERMCVPSWMCTGF (Clonal phage of the Peptide-180 library) [Phage-3550]: the “Phage binding ELISA signal, Anti-PSMA Fab with PSMA antigen” value was 0.089.
Take TERVCVPDWMCAGF (Clonal phage of the Peptide-180 library) [Phage-3547]: the “Phage binding ELISA signal, Anti-PSMA Fab with PSMA antigen” value worked out at 0.0944.
As to LAVRCIPEWMCYGL (Clonal phage of the Peptide-180 library) [Phage-3555], the “Phage binding ELISA signal, Anti-PSMA Fab with PSMA antigen” value stood at 0.0644.
Regarding QSMMCIPSWMCVGF (Clonal phage of the Peptide-180 library) [Phage-3556], the “Phage binding ELISA signal, Anti-PSMA Fab with PSMA antigen” value was determined as 0.0679.
Still for that read-out and setting: in the case of AGMMCTPPWMCFGF (Clonal phage of the Peptide-180 library) [Phage-3554] it was 0.0664; in that of VDRLCVPNWMCMGL (Clonal phage of the Peptide-180 library) [Phage-3552], 0.072.

The target in a further experiment is T1, Anti-PSMA Fab. Briefly: clonal phage ELISA on captured PSMA Fab pre-incubated with PSMA antigen as competitor, anti-M13 HRP detection.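 Further: crude clonal phage supernatants tested by ELISA, wells first treated with blocking buffer plus PSMA antigen, bound phage read out via HRP-linked anti-M13 antibody.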
Experimental: as §1
For B1, the “Phage binding ELISA signal, Anti-PSMA Fab with PSMA antigen” value is 0.0778.

The target in a further experiment is T3, PSMA Fab (SEQ ID NOs: 19, 20). The experiment in a line: clonal phage ELISA, biotinylated PSMA Fab on neutravidin plate, anti-M13 HRP detection.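 Further: crude clonal phage supernatants added to wells pretreated with blocking buffer either with or without PSMA antigen, bound phage read after washing.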
Experimental: as §1
On to B2, for which the “Phage binding ELISA signal, Anti-PSMA Fab” value was 1.65.
Take B3: the “Phage binding ELISA signal, Anti-PSMA Fab” value is 1.66.
B4: the “Phage binding ELISA signal, Anti-PSMA Fab” value is 1.65.
With B5, the “Phage binding ELISA signal, Anti-PSMA Fab” value is 1.66.
In the case of B6, the “Phage binding ELISA signal, Anti-PSMA Fab” value is 1.65.
B7: the “Phage binding ELISA signal, Anti-PSMA Fab” value turned out to be 1.65.
On the same count and under the same terms, then B8, with 1.65; and B9, with 1.65.
As for B10, the “Phage binding ELISA signal, Anti-PSMA Fab” value is 1.66.
In the case of B11, the “Phage binding ELISA signal, Anti-PSMA Fab” value came out at 1.65.
B12: the “Phage binding ELISA signal, Anti-PSMA Fab” value was found to be 1.65.
On the same count and under the same terms, then B13, with 1.66; and B14, with 1.65.
Turning to B15, the “Phage binding ELISA signal, Anti-PSMA Fab” value was 1.66.

For a further experiment, the target named is T2, PSMA Fab. The experiment in a line: clonal phage ELISA on biotinylated PSMA Fab captured on neutravidin plate, anti-M13 HRP detection; no PSMA antigen.
Experimental: as §1
Take VDHRCVPSWMCYGL [Phage-3508]: the “phage binding ELISA signal” value was found to be 1.69.
On the same count and under the same terms, in the case of SVTTCIPPWMCTGF [Phage-3513] it was 1.69.
On to PELACIPEWMCIGF [Phage-3515], for which the “phage binding ELISA signal” value turned out to be 1.69.
As for TEQICKPAWMCTGL [Phage-3512], the “phage binding ELISA signal” value stood at 1.69.
As to SVAYCVPTWMCDGL [Phage-3516], the “phage binding ELISA signal” value amounted to 1.69.
Consider IEIRCKPEWMCTSF [Phage-3505], for which the “phage binding ELISA signal” value is 1.7.
Regarding MVPRCEPEWMCVGF [Phage-3517], the “phage binding ELISA signal” value was 1.69.
Take LTQMCKPLWMCAGF [Phage-3506]: the “phage binding ELISA signal” value was found to be 1.69.
EYMRCEPSWMCYGF [Phage-3509]: the “phage binding ELISA signal” value was found to be 1.69.
Turning to ADIYCKPVWMCTGF [Phage-3510], the “phage binding ELISA signal” value amounted to 1.69.
Still for that read-out and setting: in the case of NIIHCVPPWMCDGF [Phage-3504] it was 1.7; in that of VVKHCVPTWMCAGF [Phage-3514], 1.69.
For VGHMCKPVWMCAGL [Phage-3511], the “phage binding ELISA signal” value came to 1.69.
For the molecule AEPVCVPDWMCFGF [Phage-3507], the “phage binding ELISA signal” value worked out at 1.69.

The target in the next experiment is T4, Anti-PSMA Fab. Briefly: clonal phage ELISA on biotinylated PSMA Fab captured on neutravidin plate, anti-M13 HRP detection.
Experimental: as §1
With VVPLCVPMWMCSPM (Clonal phage of the Peptide-180 library) [Phage-3557], the “Phage binding ELISA signal, Anti-PSMA Fab” value was 1.64.
Consider VEPACVPLWMCFGL (Clonal phage of the Peptide-180 library) [Phage-3558], for which the “Phage binding ELISA signal, Anti-PSMA Fab” value was found to be 1.64.
Consider TYFRCEPSWMCTGL (Clonal phage of the Peptide-180 library) [Phage-3559], for which the “Phage binding ELISA signal, Anti-PSMA Fab” value is 1.64.
In the case of IEKVCVPAWMCMGF (Clonal phage of the Peptide-180 library) [Phage-3551], the “Phage binding ELISA signal, Anti-PSMA Fab” value is 1.64.
On to TPPFCIPKWMCQGF (Clonal phage of the Peptide-180 library) [Phage-3548], for which the “Phage binding ELISA signal, Anti-PSMA Fab” value was determined as 1.65.
For the molecule MNIMCRPVWMCTGL (Clonal phage of the Peptide-180 library) [Phage-3549], the “Phage binding ELISA signal, Anti-PSMA Fab” value was determined as 1.65.
On to MERMCVPSWMCTGF (Clonal phage of the Peptide-180 library) [Phage-3550], for which the “Phage binding ELISA signal, Anti-PSMA Fab” value was 1.64.
With TERVCVPDWMCAGF (Clonal phage of the Peptide-180 library) [Phage-3547], the “Phage binding ELISA signal, Anti-PSMA Fab” value came out at 1.65.
With LAVRCIPEWMCYGL (Clonal phage of the Peptide-180 library) [Phage-3555], the “Phage binding ELISA signal, Anti-PSMA Fab” value stood at 1.64.
Take QSMMCIPSWMCVGF (Clonal phage of the Peptide-180 library) [Phage-3556]: the “Phage binding ELISA signal, Anti-PSMA Fab” value came out at 1.64.
Turning to AGMMCTPPWMCFGF (Clonal phage of the Peptide-180 library) [Phage-3554], the “Phage binding ELISA signal, Anti-PSMA Fab” value stood at 1.64.
Still for that read-out and setting: in the case of VDRLCVPNWMCMGL (Clonal phage of the Peptide-180 library) [Phage-3552] it was 1.64.
